In patent publication US8680046B2, “Inhibitors of viral integrase and methods of use” (Integratech Proteomics, LLC, priority 2009, dated 2014):
Ends that are not written are not given here. Peptide text beside a SMILES is read from it.

Key:
[1] = peptide solubility; format: physicochemical; settings: effect of C-terminal tail
[2] = target: T1, HIV IN (Human immunodeficiency virus type 1 group M subtype B, UniProt P12497); assay: yeast two-hybrid screen, growth on -ade plates; format: cell-based; parameters: HIV IN was amplified from the pNL4-3 based provirus (R9) as template and cloned into two expression vectors; expressed in transfected cells; host or cells: Saccharomyces cerevisiae AH109; settings: peptide fused to VP16 activation domain, GALDB-IN bait, FIG. 1
Source text: A yeast-based screening platform for identifying inhibitors of IN was constructed. In this platform, HIV IN was amplified from the pNL4-3 based provirus (R9) as template and cloned into two expression vectors resulting in a fusion of IN C-terminus to the GAL4 DNA binding domain (GALDB) and the GAL4 activation domain (GALAD) respectively. By western blot analysis, GALAD-IN was detected (not shown); however, GALDB-IN was barely detectable.
Binders were confirmed by plasmid linkage analysis (FIG. 1).

[3] = target: HPVE6 (Human papillomavirus type 16, UniProt P03126); settings: two-hybrid
HPVE6, sequence (P03126 whole entry, the tested form may be a part): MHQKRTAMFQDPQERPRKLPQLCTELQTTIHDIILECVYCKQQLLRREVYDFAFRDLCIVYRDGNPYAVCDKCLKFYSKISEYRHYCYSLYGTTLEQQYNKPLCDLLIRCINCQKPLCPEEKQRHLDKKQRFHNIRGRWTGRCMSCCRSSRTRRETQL
Source text: (§1) To identify IN-binding peptides, yeast producing HIV integrase was mated with yeast harboring a random peptide library (15 amino acids in length; 27 million diverse) fused to the VP16 activation domain. […] The peptide was cloned as a C-terminal fusion with VP16-Zsgreen and tested for interaction with the GALDB or GALDB-IN fusion in AH109 Mat a, trp1-901, leu2-3, 112, ura3-52, his3-200, gal4 Δ, gal 80Δ, LYS2::GAL1UAS-GAL1TATA-HIS3, GAL2UAS-GAL2TATA-ADE2, URA3:MEL1UAS-MEL1TATA-lacZ. Growth on -ade plates indicated activation of a selectable reporter.

[4] = target: HPVE7 (Human papillomavirus type 16, UniProt P03129); settings: two-hybrid
HPVE7, sequence (P03129 whole entry): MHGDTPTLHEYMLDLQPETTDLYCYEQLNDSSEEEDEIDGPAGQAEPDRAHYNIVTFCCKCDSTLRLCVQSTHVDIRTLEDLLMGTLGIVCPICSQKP
Source text: as §1

[5] = target: T1, HIV IN; format: biochemical; settings: summary statement

Compound | peptide solubility [1] | interaction with HIV IN by two-hybrid [2] | interaction with false bait HPVE6 [3] | interaction with false bait HPVE7 [4] | inhibition of integration of viral DNA into target DNA [5]
CC[C@H](C)[C@H](NC(=O)[C@H](CC(C)C)NC(=O)[C@@H](NC(=O)[C@@H](NC(=O)[C@H](CCC(=O)O)NC(=O)[C@H](Cc1ccc(O)cc1)NC(=O)[C@@H](N)CC(C)C)[C@@H](C)O)[C@@H](C)CC)C(=O)N[C@@H](CC(C)C)C(=O)N[C@@H](CC(C)C)C(=O)N[C@@H](Cc1ccccc1)C(=O)N[C@@H](CC(C)C)C(=O)N[C@@H](CC(=O)O)C(=O)N[C@H](C(=O)N[C@@H](CC(=O)O)C(=O)N[C@H](C(=O)NCC(=O)N[C@@H](CCCCN)C(=O)N[C@@H](CCCCN)C(=O)N[C@@H](CCCNC(=N)N)C(=O)O)[C@@H](C)O)C(C)C [B05751] (H-LYETILILLFLDVDTGKKR-OH; N-terminus and C-terminus assumed) | increased peptide solubility | – | – | – | –
CC[C@H](C)[C@H](NC(=O)[C@H](CC(C)C)NC(=O)[C@@H](NC(=O)[C@@H](NC(=O)[C@H](CCC(=O)O)NC(=O)[C@H](Cc1ccc(O)cc1)NC(=O)[C@@H](N)CC(C)C)[C@@H](C)O)[C@@H](C)CC)C(=O)N[C@@H](CC(C)C)C(=O)N[C@@H](CC(C)C)C(=O)N[C@@H](Cc1ccccc1)C(=O)N[C@@H](CC(C)C)C(=O)N[C@@H](CC(=O)O)C(=O)N[C@H](C(=O)N[C@@H](CC(=O)O)C(=O)N[C@H](C(=O)NCC(=O)N[C@@H](CC(=O)O)C(=O)N[C@@H](CCC(=O)O)C(=O)N[C@@H](CC(=O)O)C(=O)O)[C@@H](C)O)C(C)C [B05759] (H-LYETILILLFLDVDTGDED-OH; N-terminus and C-terminus assumed) | increased peptide solubility | – | – | – | –
LYETILILLFLDVDTG [SEQ ID NO:1] | – | interacted with the viral target | not false baits | not false baits | inhibit the integration of viral DNA into the target DNA
